This is an account of results in publication PMC9758056, “Structural basis for Parkinson’s disease-linked LRRK2’s binding to microtubules” (Nature Structural & Molecular Biology, 2022).

This series deals with the molecule itself. In words: cryo-EM imaging with calculated diffraction patterns (layer lines); tubulin or microtubules with LRRK2^RCKW (WT or mutant), with or without MLi-2; layer lines in diffraction patterns calculated from images of single filaments, 2D class averages.

B1: LRRK2^RCKW-S2345D (domain or fragment, human)
chain: KKAVPYNRMKLMIVGNTGSGKTTLLQQLMKTKKSDLGMQSATVGIDVKDWPIQIRDKRKRDLVLNVWDFAGREEFYSTHPHFMTQRALYLAVYDLSKGQAEVDAMKPWLFNIKARASSSPVILVGTHLDVSDEKQRKACMSKITKELLNKRGFPAIRDYHFVNATEESDALAKLRKTIINESLNFKIRDQLVVGQLIPDCYVELEKIILSERKNVPIEFPVIDRKRLLQLVRENQLQLDENELPHAVHFLNESGVLLHFQDPALQLSDLYFVEPKWLCKIMAQILTVKVEGCPKHPKGIISRRDVEKFLSKKRKFPKNYMSQYFKLLEKFQIALPIGEEYLLVPSSLSDHRPVIELPHCENSEIIIRLYEMPYFPMGFWSRLINRLLEISPYMLSGRERALRPNRMYWRQGIYLNWSPEAYCLVGSEVLDNHPESFLKITVPSCRKGCILLGQVVDHIDSLMEEWFPGLLEIDICGEGETLLKKWALYSFNDGEEHQKILLDDLMKKAEEGDLLVNPDQPRLTIPISQIAPDLILADLPRNIMLNNDELEFEQAPEFLLGDGSFGSVYRAAYEGEEVAVKIFNKHTSLRLLRQELVVLCHLHHPSLISLLAAGIRPRMLVMELASKGSLDRLLQQDKASLTRTLQHRIALHVADGLRYLHSAMIIYRDLKPHNVLLFTLYPNAAIIAKIADYGIAQYCCRMGIKTSEGTPGFRAPEVARGNVIYNQQADVYSFGLLLYDILTTGGRIVEGLKFPNEFDELEIQGKLPDPVKEYGCAPWPMVEKLIKQCLKENPQERPTSAQVFDILNSAELVCLTRRILLPKNVIVECMVATHHNSRNASIWLGCGHTDRGQLSFLDLNTEGYTSEEVADSRILCLALVHLPVEKESWIVSGTQSGTLLVINTEDGKKRHTLEKMTDSVTCLYCNSFSKQSKQKNFLLVGTADGKLAIFEDKTVKLKGAAPLKILNIGNVSTPLMCLSESTNSTERNVMWGGCGTKIFSFSNDFTIQKLIETRTSQLFDYAAFSDSNIITVVVDTALYIAKQNSPVVEVWDKKTEKLCGLIDCVHFLREVMVKENKESKHKMSYSGRVKTLCLQKNTALWIGTGGGHILLLDLSTRRLIRVIYNFCNSVRVMMTAQLGSLKNVMLVLGYNRKNTEGTQKQKEIQSCLTVWDINLPHEVQNLEKHIEVRKELAEKMRRTSVE
notes: LRRK2, human, carboxy-terminal catalytic half with the ROC, COR, kinase and WD40 domains; also called p.S2345D; WD40 dimerization interface mutant; source: Sf9 insect cells, baculovirus, purified (Ni-NTA, SP Sepharose, TEV cleavage, second Ni-NTA, S200 gel filtration); not shown: His6-Z, N-terminal, cleaved
In the case of B1, the binding result is “binds”.

B2: LRRK2^RCKW-G2019S (domain or fragment, human)
chain: KKAVPYNRMKLMIVGNTGSGKTTLLQQLMKTKKSDLGMQSATVGIDVKDWPIQIRDKRKRDLVLNVWDFAGREEFYSTHPHFMTQRALYLAVYDLSKGQAEVDAMKPWLFNIKARASSSPVILVGTHLDVSDEKQRKACMSKITKELLNKRGFPAIRDYHFVNATEESDALAKLRKTIINESLNFKIRDQLVVGQLIPDCYVELEKIILSERKNVPIEFPVIDRKRLLQLVRENQLQLDENELPHAVHFLNESGVLLHFQDPALQLSDLYFVEPKWLCKIMAQILTVKVEGCPKHPKGIISRRDVEKFLSKKRKFPKNYMSQYFKLLEKFQIALPIGEEYLLVPSSLSDHRPVIELPHCENSEIIIRLYEMPYFPMGFWSRLINRLLEISPYMLSGRERALRPNRMYWRQGIYLNWSPEAYCLVGSEVLDNHPESFLKITVPSCRKGCILLGQVVDHIDSLMEEWFPGLLEIDICGEGETLLKKWALYSFNDGEEHQKILLDDLMKKAEEGDLLVNPDQPRLTIPISQIAPDLILADLPRNIMLNNDELEFEQAPEFLLGDGSFGSVYRAAYEGEEVAVKIFNKHTSLRLLRQELVVLCHLHHPSLISLLAAGIRPRMLVMELASKGSLDRLLQQDKASLTRTLQHRIALHVADGLRYLHSAMIIYRDLKPHNVLLFTLYPNAAIIAKIADYSIAQYCCRMGIKTSEGTPGFRAPEVARGNVIYNQQADVYSFGLLLYDILTTGGRIVEGLKFPNEFDELEIQGKLPDPVKEYGCAPWPMVEKLIKQCLKENPQERPTSAQVFDILNSAELVCLTRRILLPKNVIVECMVATHHNSRNASIWLGCGHTDRGQLSFLDLNTEGYTSEEVADSRILCLALVHLPVEKESWIVSGTQSGTLLVINTEDGKKRHTLEKMTDSVTCLYCNSFSKQSKQKNFLLVGTADGKLAIFEDKTVKLKGAAPLKILNIGNVSTPLMCLSESTNSTERNVMWGGCGTKIFSFSNDFTIQKLIETRTSQLFSYAAFSDSNIITVVVDTALYIAKQNSPVVEVWDKKTEKLCGLIDCVHFLREVMVKENKESKHKMSYSGRVKTLCLQKNTALWIGTGGGHILLLDLSTRRLIRVIYNFCNSVRVMMTAQLGSLKNVMLVLGYNRKNTEGTQKQKEIQSCLTVWDINLPHEVQNLEKHIEVRKELAEKMRRTSVE
notes: LRRK2, human, carboxy-terminal catalytic half with the ROC, COR, kinase and WD40 domains, with the PD-linked mutation p.G2019S; also called LRRK2^RCKW carrying p.G2019S; source: Sf9 insect cells, baculovirus, purified (Ni-NTA, SP Sepharose, TEV cleavage, second Ni-NTA, S200 gel filtration); not shown: His6-Z, N-terminal, cleaved
In the case of B2, the binding result is reported as “binds”.
